This is an account of results in patent publication US7108988B2, “Methods of identifying agents for inhibiting lentivirus replication” (priority 2001, dated 2006).

Test [1] deals with T1, CyPA (Homo sapiens, UniProt P62937).
T1 construct: purchased Sigma
In words: Surface plasmon resonance (BIAcore) binding of Vpr peptides to immobilized recombinant CyPA. To be noted: 25° C.; for binding to CyPA: peptide 1 to 250 μM, immobilized recombinant CyPA. The protocol: Surface plasmon resonance biosensor analysis (BIAcore-Spectroscopy) was applied to analyze the molecular aspects that govern interaction of Vpr with CyPA. For the first experiment, a novel peptide comprising the first 40 residues of the Vpr protein derived from the isolate HIV-1NL4-3 was used to study the interaction with CyPA.
Surface plasmon resonance measurements were performed at 25° C. using a BIACORE 2000 (BIAcore AB, Upsala Sweden) equipped with a CM5 research-grade sensor chip. […] The peptide Vpr^1-40 was dissolved at concentrations ranging from 1 to 250 μM in a running buffer (10 mM Hepes, 150 mM NaCl, 50 μM EDTA, 0.005% Tween 20, pH 7.4) and was injected over the flow cells containing CyPA bound to the chip matrix at a flow rate of 5 μl/min. Data were collected at a rate of 2.5 Hz during the 120 s association and dissociation phase. Vpr^1-40 interactions reached equilibrium rapidly and dissociation completely within 30 seconds. Results were corrected by the RU-values of the reference cell (without CyPA) to exclude unspecific binding of Vpr to the chip matrix. The experiment was repeated at least three times with two different charges of peptide and CyPA and reproducible results were obtained.
Synthetic Vpr^1-40 and mutants carrying Pro to Asn exchanges at either amino acid positions 5, 10 and 14 (P^5,10,14 to N ) or at position 35 (P^35 to N) or at all four positions (P^5,10,14,35 to N) were purified to homogeneity, and tested for binding to immobilized recombinant CyPA using the same surface plasmon resonance biosensor system. […] Thus, among prolines at positions 5, 10, 14, and 35 of Vpr^1-40, only proline-35 is essential for binding to CyPA.

Test [2] addresses T1, CyPA. In words: Far-Western blot binding of Vpr to CyPA bound to nitrocellulose. As for the experimental part: Investigation of full length Vpr^1-96 was not possible by BIAcore as the full length Vpr protein tends to undergo self association and protein precipitation, that all together yielded false positive binding signals. As an alternative we investigated the binding of Vpr to CyPA bound to nitrocellulose.
For the purpose of Far-Western Blot technique, purified recombinant CyPA was separated in a 15% SDS PAGE at a concentration of ˜150 ng CyPA per lane. Proteins were electro transferred onto nitrocellulose and individual strips of this CyPA-containing Western blot were blocked for 4 hours with 3% BSA in TBS. Strips were then incubated for 12 hrs at 4° C. with the peptide Vpr^1-96 at a concentration of 1 μg/ml, CyPA strips were incubated either in the absence of any detergent, or under more stringent conditions in TBS/T containing 0.5% Triton X100™ non-ionic detergent. Finally, strips were washed tree times in TBS/T for 10 minutes and bound Vpr was identified with anti-Vpr^1-96 (polyclonal antibodies raised in rabbits) followed by anti-rabbit IgG horse radish peroxidase (HRP) conjugate and enhanced chemiluminescence (ECL) staining. As a control, the CypA binding protein, HIV-1 capsid p24 was tested in parallel.

The target of test [3] is T1, CyPA. Put plainly: In vitro CyPA/Vpr complex formation, non-reducing SDS-PAGE and Western blot. Type of test: binding. The source says:
[…] Proteins were separated on a 14% polyacrylamide gel in SDS (without reducing agents), by PAGE. Proteins were detected by Western blotting after transfer of the proteins from the gel to membranes. CyPA and Vpr proteins were detected using anti-Vpr and anti-CyPA antibodies (Calbiochem).
On the technique in general: A western blot detects proteins with antibodies after separation by electrophoresis.

T1 sequence (P62937 whole entry): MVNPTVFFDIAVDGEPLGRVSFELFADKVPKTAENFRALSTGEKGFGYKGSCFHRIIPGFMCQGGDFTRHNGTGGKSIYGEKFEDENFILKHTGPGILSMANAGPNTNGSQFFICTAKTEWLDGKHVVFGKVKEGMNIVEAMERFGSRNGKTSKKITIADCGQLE

Consider “P^5,10,14 to N (MEQANEDQGNQRENHNEWTL; Vpr 1-20; UniProt P69725 1-20, looked up, variant P5N P10N P14N)”, for which the “binding to CyPA” value in test [1] is “retained dose-dependent binding to CyPA”.

For “Pro-35 to Asn of Vpr^21-40: Vpr^21-40 with Pro-35 mutated to Asn”, the “binding to CyPA” value in test [1] is listed as “complete loss of CyPA binding”.

“Vpr^1-20: very N-terminal fragment of Vpr”: the “binding to CyPA” value in test [1] is reported as “did not bind to CyPA”.

On to “Vpr^1-40: peptide comprising the first 40 residues of the Vpr protein derived from the isolate HIV-1NL4-3”, for which, in test [1], the “time to complete dissociation from CyPA” value is at most 30 s and the “binding to CyPA” value is “concentration dependent binding to CyPA”.

For Vpr^1-96: full length Vpr peptide, the “binding to CyPA (Far-Western)” value is recorded as “binds to CyPA” in test [2] (1 μg/ml peptide, absence of detergent); “low affinity” in test [2] (presence of 0.5% TritonX100 non-ionic detergent); “reduced” in test [2] (presence of 0.5% TritonX100 non-ionic detergent, listed as Vpr). The “complex formation with CyPA” value in test [3] (1 μg each, 22° C., 12 hours, no reducing agent) is “formation of a novel approximately 29 kDa product”; in test [3] (with reducing agent (β-mercaptoethanol)), “loss of the Vpr/CyPA complex”.

Regarding Vpr^21-40: smaller fragment of Vpr, the “binding to CyPA” value in test [1] was “strong and dose-dependent binding to CyPA”.
